Measured values from patent US20170049884A1, “USE OF ANTI-CCR5 ANTIBODIES IN GRAFT VERSUS HOST DISEASE” (CytoDyn Inc., priority 2014, published 2017).

Columns and labels:
[1] = single administration of TAK-652 solution; cited from earlier work
[2] = in vivo; cited from earlier work
[3] = test system: reporter viruses pseudotyped with HIV-1JR-FL envelope; type: cell-based; conditions: HIV-1 Envelope JRFL; named 1st inhibitor with 2nd inhibitor PRO 140
Description: (§1) A self-inactivating (SIN) vector was derived from the pNL4-3ΔEnv-luciferase vector (Dragic et al. 1996) by deleting 507 basepairs in the U3 region of the 3′ long terminal repeat (LTR) so as to remove the TATA, box and transcription factor binding sites. The human cytomegalovirus promoter was inserted upstream of the luciferase (luc) gene to enable expression of luciferase following integration.
(§2) SF162 envelopes were generated by cotransfection of 293T cells with the SIN vector and the appropriate pcDNA env-expressing vector as previously described (Dragic et al, 1996). […] Cultures were incubated for 72 h at 37°C. in DMEM containing 10% fetal bovine serum, […], 0.3 mg/mL geneticin, antibiotics, and 0.5% DMSO. Luciferase activity (relative light units or RLU) was measured using BrightGlo reagent (Promega, Madison, Wis.) according to the manufacturer's instructions. Percent inhibition was calculated as: (1-RLU in the presence of inhibitor/RLU in the absence of inhibitor)×100.
(§3) Experimental design and data analysis were based on the combination index (CI) method (Chou et al. 1991; Chou et al. 1984). Compounds were tested individually and in combination at a fixed molar ratio over a range of serial dilutions. […] The mutually exclusive CI formula was used for combinations of CCR5 inhibitors, while the mutually non-exclusive formula was utilized for combinations of inhibitors to distinct targets (Chou et al. 1991). Each test was conducted 4-12 times. Synergy, additivity and antagonism are indicated by CI<1, CI=1 and CI>1, respectively.
(§4) In the Bonferroni correction, P=.alpha,/h, where n is the number of comparisons. Twenty-two synergy comparisons (11 compounds×2 CI values) were made based on data generated in the membrane fusion assay, resulting in a corrected P value of0.0023.

[4] = test system: reporter viruses pseudotyped with HIV-1SF162 envelope; type: cell-based; conditions: HIV-1 Envelope SF162; named 1st inhibitor with 2nd inhibitor PRO 140
Description: as §1, §2, §3, §4

CCR5 lymphocytes = type: in vivo, human; conditions: 2 mg/kg
Method: Individuals were treated in sequential, dose-rising cohorts of 5 subjects (4 active and 1 placebo) each and evaluated for up to 120 days post-treatment. […] Safety assessments consisted of monitoring the following: vital signs (blood pressure, pulse, temperature, etc; hematology (hemoglobin, hematocrit, leukocytes, platelets, etc.); serum chemistries (AST/ALT, alkaline phosphatase, BUN, creatinine, etc.); urinalysis (pH, specific gravity, protein, glucose, leukocytes, etc.); and ECGs (12-lead).
Whole blood specimens were combined separately with the indicated phycoerythrin-labeled anti-CCR5 antibodies or with appropriate isotype-control antibodies. Erythocytes were lysed and leukocytes were stabilized using the ImmunoPrep Reagent System (Beckman Coulter), and the cells were analyzed on a TQ Prep™ flow cytometry workstation (Beckman Coulter). Data were expressed as the percent of CCR5 cells relative to all cells gated in the analysis.
For up to 60 days post-treatment, at the times indicated in FIG. 6, blood was collected and analyzed for CCR5 lymphocyte levels.

CCR5 [5] = biological target: T1, CCR5 (Homo sapiens, UniProt P51681); test: RANTES-induced calcium mobilization in L1.2-CCR5 cells; type: cell-based; conditions: FIG. 4
T1 sequence (P51681 whole entry): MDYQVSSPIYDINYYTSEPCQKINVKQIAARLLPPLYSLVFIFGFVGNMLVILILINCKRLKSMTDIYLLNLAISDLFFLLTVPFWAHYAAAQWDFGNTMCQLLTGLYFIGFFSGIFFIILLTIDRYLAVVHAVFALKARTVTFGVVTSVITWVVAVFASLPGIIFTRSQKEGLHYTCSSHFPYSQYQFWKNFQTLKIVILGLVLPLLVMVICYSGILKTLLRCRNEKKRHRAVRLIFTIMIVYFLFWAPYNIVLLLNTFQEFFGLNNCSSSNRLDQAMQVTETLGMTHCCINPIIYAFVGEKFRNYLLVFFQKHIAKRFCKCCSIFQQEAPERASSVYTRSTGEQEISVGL
Description: Similar results were obtained for MIP-1.alpha, and MIP-1β

HIV-1 = conditions: repeated administration; cited from earlier work
CCR5 [6] = biological target: T1, CCR5; test: Competition binding: inhibition of PRO 140-PE binding to CEM.NKR-CCR5 cells; set-up: host or cells: CEM.NKR-CCR5 (transduced human T cell leukemia line); conditions: in words
Method: Azide was added to block CCR5 internalization during the assay.

CCR5 [7] = biological target: T1, CCR5; test: Competition binding: inhibition of 3H-UK-427,857 binding to CEM.NKR-CCR5 cells; set-up: host or cells: CEM.NKR-CCR5 (transduced human T cell leukemia line); conditions: in words
Description: The cells were washed in PBSA and lysed with 0.5N HCl prior to scintillation counting using a Wallac1410 instrument.

Q: With CCCCOCCOc1ccc(-c2ccc3c(c2)/C=C(/C(=O)Nc2ccc([S+]([O-])Cc4cncn4CCC)cc2)CCCN3CC(C)C)cc1 (stereo not drawn) [TAK-652] as the molecule, how does the safety and tolerability [1] read?
A: safe and well tolerated

Q: With Cc1ccc(-c2ccc3c(c2)C=C(C(=O)Nc2ccc(C[N+](C)(C)C4CCOCC4)cc2)CCC3)cc1.[Cl-] [TAK-779] as the molecule, how does the local tolerability [2] read?
A: local injection site irritation

B1: PRO 140: humanized IgG4,kappa anti-CCR5 mAb; humanized version of the murine mAb PA14 (antibody, chains of the INN, looked up, V domains shown)
VH: EVQLVESGGGLVKPGGSLRLSCAASGYTFSNYWIGWVRQAPGKGLEWIGDIYPGGNYIRNNEKFKDKTTLSADTSKNTAYLQMNSLKTEDTAVYYCGSSFGSNYVFAWFTYWGQGTLVTVSS
VL: DIVMTQSPLSLPVTPGEPASISCRSSQRLLSSYGHTYLHWYLQKPGQSPQLLIYEVSNRFSGVPDRFSGSGSGTDFTLKISRVEAEDVGVYYCSQSTHVPLTFGQGTKVEIK
Q: With B1 as the molecule, how does the CI190 [3] read?
A: 0.90 ± 0.15

Q: And the CI190 [4]?
A: 0.86 ± 0.33

Q: What about the “binding of antibody 2D7 to CCR5 lymphocytes” value (CCR5 lymphocytes) of the same molecule?
A: significantly decreased

Q: And the “inhibition of RANTES-induced calcium mobilization vs HIV-1JR-FL replication” value (CCR5 [5])?
A: blocks HIV-1 but not chemokine signaling

Q: And the “control of HIV-1 replication” value (HIV-1)?
A: prolonged control of HIV-1 replication without viral escape

Q: What about the “inhibition of PRO 140-PE binding to CEM.NKR-CCR5 cells” value (CCR5 [6]) of the same molecule?
A: Complete inhibition

Q: What about the “inhibition of 3H-UK-427,857 binding” value (CCR5 [7]) of the same molecule?
A: blocked ^3H-UK-427,857 binding to background levels
